Residue numbers refer to the chain shown, from its start. One block for each binder: values may come before it.
How the values were obtained:
biotinylated human PD-L1 [1] = target: T1, biotinylated human PD-L1 (human, UniProt Q9NZQ7 19-238, limits assumed, biotinylated); assay: competition ELISA; coated human PD-1 as competitor; biotinylated human PD-L1 pre-incubated with inhibitor
T1 construct: also called biotinylated PD-L1

biotinylated human PD-L1 [2] = target: T1, biotinylated human PD-L1; assay: competition ELISA; coated human B7.1 as competitor; biotinylated PD-L1 pre-incubated with inhibitor
[3] = target: human PD-L1 expressed on cells (human, UniProt Q9NZQ7 19-290); assay: cell-based or functional assay
[4] = target: T2, human CD137 expressed on cells (human, UniProt Q07011 24-255); assay: cell-based or functional assay
[5] = target: human PD-L1-Fc chimeric protein (human, UniProt Q9NZQ7 19-239); assay: SPR (Biacore T200); PD-L1-Fc captured by anti-human Fc
[6] = target: T2, human CD137 expressed on cells; assay: cell-based or functional assay; remark: listed apart in the source
[7] = target: T2, human CD137 expressed on cells; assay: cell-based or functional assay; remark: listed apart in the source
[8] = target: T2, human CD137 expressed on cells; assay: cell-based or functional assay; remark: listed apart in the source
human serum albumin = target: T3, human serum albumin (human, UniProt P02768 25-609); assay: SPR (Biacore T200); SA amine-coupled; pH 5.5
T3 construct: Amine-coupled to a CM5 chip; assay at pH 5.5; also called HSA; human SA

B1: PRO830 (anti-PD-L1 scFv, CDR set of clone 33-03-G02 grafted on a VH4 framework) (scFv)
chain: DIQMTQSPSSLSASVGDRVTITCQASQSINDYLAWYQQKPGKAPKLLIYKASTLASGVPSRFSGSGSGTDFTLTISSLQPEDFATYYCQQGYIITDIDNVFGTGTKVTVLGGGGGSGGGGSGGGGSGGGGSQVQLQESGPGLVKPSETLSLTCKVSGFSFSSGYDMCWIRQPPGKGLEWIGCVVAGSVDITYYASWAKGRVTISVDSSKNQFSLKLSSVTAADTAVYYCARKDAYSDAFNLWGQGTLVTVSS
IC50 (biotinylated human PD-L1 [1]): 3.4 ng/mL | IC50 (biotinylated human PD-L1 [2]): 12.9 ng/mL | IC50 (ng/ml), neutralization of PD-L1/PD-1 interaction, NFAT-luciferase reporter gene assay [3]: 42.9 ng/mL

B2: PRO1123: 38-02-A04 sc05 IF scDb-i/33_03_G02 sc01 scDb-o (bispecific antibody)
chain: DIQMTQSPSSLSASVGDRVTITCQASQSINDYLAWYQQKPGKAPKLLIYKASTLASGVPSRFSGSGSGTDFTLTISSLQPEDFATYYCQQGYIITDIDNVFGTGTKVTVLGGGGGSQVQLQESGPGLVKPSETLSLTCKVSGFSFSNSYWICWVRQPPGKGLEWIGCTFVGSSDSTYYANWAKGRVTISVDSSKNQVSLKLSSVTAADTAVYFCARHPSDAVYGYANNLWGQGTLVTVSSGGGGSGGGGSGGGGSGGGGSIQMTQSPSSLSASVGDRVTITCQASQSINNVLAWYQQKPGKPPKLLIYRASTLASGVPSRFSGSGSGTDFTLTISSLQPEDFATYYCQSSYGNYGDFGTGTKVTVLGGGGGSQVQLQESGPGLVKPSETLSLTCKVSGFSFSSGYDMCWIRQPPGKGLEWIGCVVAGSVDITYYASWAKGRVTISVDSSKNQFSLKLSSVTAADTAVYYCARKDAYSDAFNLWGQGTLVTVSS
notes: scDb
max. activation (%), NF-kB reporter gene, CHO-PD-L1; HSA: no [4]: 219% | max. activation (%), NF-kB reporter gene, HCC827 +IFNg; HSA: no [4]: 154% | max. activation (%), NF-kB reporter gene, HCC827 -IFNg; HSA: no [4]: 123% | binding result [5]: binds | EC50 in ng/ml, CD137 activation, NFkB-luciferase Jurkat reporter assay, CHO-PD-L1 cells [6]: 5.75 ng/mL | EC50 in ng/ml, CD137 activation, NFkB-luciferase Jurkat reporter assay, HCC827 cells without IFNg [7]: 16.1 ng/mL | EC50 in ng/ml, CD137 activation, NFkB-luciferase Jurkat reporter assay, HCC827 cells stimulated with IFNg [8]: 11.9 ng/mL

Further lines, results first:

max. activation (%), NF-kB reporter gene, CHO-PD-L1; HSA: no [4]: 229% | max. activation (%), NF-kB reporter gene, HCC827 +IFNg; HSA: no [4]: 188% | max. activation (%), NF-kB reporter gene, HCC827 -IFNg; HSA: no [4]: 113% | binding result [5]: binds | EC50 in ng/ml, CD137 activation, NFkB-luciferase Jurkat reporter assay, CHO-PD-L1 cells [6]: 3.68 ng/mL | EC50 in ng/ml, CD137 activation, NFkB-luciferase Jurkat reporter assay, HCC827 cells without IFNg [7]: 5.62 ng/mL | EC50 in ng/ml, CD137 activation, NFkB-luciferase Jurkat reporter assay, HCC827 cells stimulated with IFNg [8]: 4.83 ng/mL
B3: PRO1124: 38-02-A04 sc06 Full scDb-i/33_03_G02 sc01 scDb-o (bispecific antibody)
chain: B2 chain with V140A, V190K, I261L
notes: scDb, STR graft of the CD137 domain

binding result [5]: binds | binding result (human serum albumin): binds
B4: PRO966 (= PRO1052): 38_27_C05 sc01 scDb-i/33-03-G02 sc01 scDb-o/19-01-H04-sc03 scFv (other)
chain: DIQMTQSPSSLSASVGDRVTITCQASQSINDYLAWYQQKPGKAPKLLIYKASTLASGVPSRFSGSGSGTDFTLTISSLQPEDFATYYCQQGYIITDIDNVFGTGTKVTVLGGGGGSQVQLQESGPGLVKPSETLSLTCKVSGFSFNNDYDMCWIRQPPGKGLEWIGCIDTGDGSTYYASWAKGRVTISVDSSKNQFSLKLSSVTAADTAVYYCAREAASSSGYGMGYFDLWGQGTLVTVSSGGGGSGGGGSGGGGSGGGGSIQMTQSPSSLSASVGDRVTITCQSSQSVYDNNWLAWYQQKPGKAPKLLIYRASNLASGVPSRFSGSGSGTDFTLTISSLQPEDFATYYCQGTYLSSNWYWAFGTGTKVTVLGGGGGSQVQLQESGPGLVKPSETLSLTCKVSGFSFSSGYDMCWIRQPPGKGLEWIGCVVAGSVDITYYASWAKGRVTISVDSSKNQFSLKLSSVTAADTAVYYCARKDAYSDAFNLWGQGTLVTVSSGGGGSGGGGSIQMTQSPSSLSASVGDRVTITCQSSESVYSNNQLSWYQQKPGQPPKLLIYDASDLASGVPSRFSGSGSGTDFTLTISSLQPEDFATYYCAGGFSSSSDTAFGGGTKLTVLGGGGGSGGGGSGGGGSGGGGSEVQLVESGGGLVQPGGSLRLSCAASGFSLSSNAMGWVRQAPGKGLEYIGIISVGGFTYYASWAKGRFTISRDNSKNTVYLQMNSLRAEDTATYFCARDRHGGDSSGAFYLWGQGTLVTVSS
notes: Trispecific scTriabody (scDb-scFv)
